Measurements published in patent publication US20240117038A1 (Ablynx, published 2024).

Legend:
human CX3CR1 [1] = molecular target: T1, human CX3CR1 (human, UniProt P49238 1-355); assay: MSD-SET in-solution affinity on cell expressed human CX3CR1, 30 uM HSA, geometric mean of N = 3
T1 construct: Overexpressed on CHO K1, Ba/F3 or HEK293T cells; also called huCX3CR1; hCX3CR1
T1 sequence: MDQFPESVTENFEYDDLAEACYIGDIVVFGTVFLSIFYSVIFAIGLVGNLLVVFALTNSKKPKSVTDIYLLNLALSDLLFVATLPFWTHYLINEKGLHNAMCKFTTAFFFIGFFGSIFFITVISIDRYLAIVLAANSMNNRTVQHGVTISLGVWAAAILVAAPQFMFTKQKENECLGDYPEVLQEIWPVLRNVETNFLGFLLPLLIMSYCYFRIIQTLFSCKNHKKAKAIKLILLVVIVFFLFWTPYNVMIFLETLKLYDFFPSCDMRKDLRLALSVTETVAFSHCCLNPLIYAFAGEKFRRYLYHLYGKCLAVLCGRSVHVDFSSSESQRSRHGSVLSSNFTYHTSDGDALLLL
Protocol: The affinity was determined on 3 independent assay occasions.

human CX3CR1 [2] = molecular target: T1, human CX3CR1; assay: cell-based or functional assay
DSC1 = molecular target: T2, DSC1; assay: membrane protein array validation: flow cytometry on unfixed cells expressing the protein, serial dilutions in buffer with 10% human serum albumin, fluorescently labeled secondary antibody that binds ISVDs
T2 construct: Tested in the validation titration of the membrane protein array
T2 chain: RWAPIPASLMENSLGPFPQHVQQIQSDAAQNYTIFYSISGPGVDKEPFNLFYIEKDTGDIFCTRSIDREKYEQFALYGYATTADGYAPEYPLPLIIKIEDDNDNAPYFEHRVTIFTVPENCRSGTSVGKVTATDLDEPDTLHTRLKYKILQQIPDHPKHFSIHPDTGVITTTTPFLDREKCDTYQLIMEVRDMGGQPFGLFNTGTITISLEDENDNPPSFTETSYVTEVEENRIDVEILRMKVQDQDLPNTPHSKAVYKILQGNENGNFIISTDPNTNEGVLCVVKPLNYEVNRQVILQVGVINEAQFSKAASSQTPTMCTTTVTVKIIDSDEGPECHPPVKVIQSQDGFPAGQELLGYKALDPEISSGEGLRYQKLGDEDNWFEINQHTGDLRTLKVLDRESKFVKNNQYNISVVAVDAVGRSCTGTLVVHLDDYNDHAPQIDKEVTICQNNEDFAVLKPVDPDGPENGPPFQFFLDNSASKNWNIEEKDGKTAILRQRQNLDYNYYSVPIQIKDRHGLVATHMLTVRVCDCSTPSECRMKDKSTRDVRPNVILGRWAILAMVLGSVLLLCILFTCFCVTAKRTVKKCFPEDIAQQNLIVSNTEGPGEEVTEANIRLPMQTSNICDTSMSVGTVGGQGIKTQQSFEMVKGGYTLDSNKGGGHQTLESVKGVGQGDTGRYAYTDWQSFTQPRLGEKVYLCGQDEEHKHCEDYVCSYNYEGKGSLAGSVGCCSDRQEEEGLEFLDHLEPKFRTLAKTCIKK

human CX3CR1 [3] = molecular target: T1, human CX3CR1; assay: cell-based or functional assay; remark: listed apart in the source
cynomolgus CX3CR1 = molecular target: T3, cynomolgus CX3CR1 (cynomolgus monkey (Macaca fascicularis), UniProt P49238 1-355 (human entry)); assay: flow cytometry on CHO K1 cells; tied to A041600085 by Table B-4 (5.6E-10 against 1.7E-10)
T3 construct: Overexpressed on CHO K1 cells; also called cyno CX3CR1; cyCX3CR1
T3 chain: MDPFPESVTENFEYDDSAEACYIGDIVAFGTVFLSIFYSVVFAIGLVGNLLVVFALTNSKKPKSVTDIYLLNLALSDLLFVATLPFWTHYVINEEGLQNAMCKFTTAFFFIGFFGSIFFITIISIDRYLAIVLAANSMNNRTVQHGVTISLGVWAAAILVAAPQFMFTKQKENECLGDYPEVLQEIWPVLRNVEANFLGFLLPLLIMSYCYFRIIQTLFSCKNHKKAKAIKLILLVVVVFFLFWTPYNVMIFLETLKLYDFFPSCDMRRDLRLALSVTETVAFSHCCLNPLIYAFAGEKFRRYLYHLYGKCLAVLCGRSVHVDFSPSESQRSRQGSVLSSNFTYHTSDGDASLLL
Protocol: CHO cells overexpressing human or cynomolgus CX3CR1 were generated using techniques known in the art. Cells were harvested and resuspended in assay buffer (PBS, 2% FBS, 0.05% NaN3) and seeded separately in 384-well Bio-One V-bottom plates (Greiner, Cat. No. 781280), with a total of 2E04 cells seeded per well. After washing, serial dilutions of multivalent ISVD construct (starting from 250 nM, 3-fold dilution, 11 points, diluted in assay buffer), were added and incubated for 4 hours at 4° C. Binding was performed in the presence of 30 uM HSA (Sigma-Aldrich, Cat. No. A8763). Plates were then washed 3 times and cells were incubated with an anti-VHH mouse antibody (3300-fold diluted in assay buffer) for 30 minutes at 4′° C. […] Plates were finally washed 3 times and cells were resuspended in PI (Miltenyi Biotec, Cat. No. 130-093-233, 1000-fold diluted in assay buffer). Cell suspensions were analyzed with iQue Screener PLUS (Intellicyt). EC50s were estimated by dose response modelling. Curves were fit using 4 parameter logistic regression in GraphPad (GraphPad Software Inc.). A purified anti-human CX3CR1 antibody [K0124E1] (BioLegend, Cat. No. 355701/355702) was used as positive control to detect CX3CR1 expression on the cell surface.

B1: A041600035 (VHH)
chain: DVQLVESGGGSVQPGGSLRLSCAASGSIFSSTAMAWYRQAPGKQRDLVAVISTVGITKYADSVKGRFTISRDNAKNTVYLQMNSLRPEDTALYYCTSDARRGWDTRYWGQGTLVTVSSGGGGSGGGSEVQLVESGGGSVQPGGSLRLSCAASGSIFSSTAMAWYRQAPGKQRDLVAVISTVGITKYADSVKGRFTISRDNAKNTVYLQMNSLRPEDTALYYCTSDARRGWDTRYWGQGTLVTVSSGGGGSGGGSEVQLVESGGGVVQPGGSLRLSCAASGFTFRSFGMSWVRQAPGKGPEWVSSISGSGSDTLYADSVKGRFTISRDNSKNTLYLQMNSLRPEDTALYYCTIGGSLSRSSQGTLVTVSSA
notes: Trivalent ISVD construct (two anti-CX3CR1 ISVDs, one anti-albumin ISVD), C-terminal alanine included in the entry; also called 54A12_SO (E1D)-9GS-54A12_SO-9GS-ALB23002-A
Kd (human CX3CR1 [1]): 0.13 nM | fold inhibition of monocyte migration (A041600035 VS IRR VHH), healthy, CD16+ monocytes (human CX3CR1 [2]): 2.34 fold | fold inhibition of monocyte migration (A041600035 VS IRR VHH), healthy, CD16- monocytes (human CX3CR1 [2]): 1.5 fold | fold inhibition of monocyte migration (A041600035 VS IRR VHH), healthy, total monocytes (human CX3CR1 [2]): 1.82 fold | fold inhibition of monocyte migration (A041600035 VS IRR VHH), lupus nephritis, CD16+ monocytes (human CX3CR1 [2]): 1.9 fold | fold inhibition of monocyte migration (A041600035 VS IRR VHH), lupus nephritis, CD16- monocytes (human CX3CR1 [2]): 1.71 fold | fold inhibition of monocyte migration (A041600035 VS IRR VHH), lupus nephritis, total monocytes (human CX3CR1 [2]): 1.71 fold | binding result (DSC1): no binding (tested: 20 ug/ml) | arbitrary migration index (GM), classical monocytes of healthy donors, 625 pM (human CX3CR1 [3]): 1.15 fold change to media control | arbitrary migration index (GM), classical monocytes of healthy donors, 2500 pM (human CX3CR1 [3]): 1.09 fold change to media control | arbitrary migration index (GM), classical monocytes of healthy donors, 10000 pM (human CX3CR1 [3]): 1.05 fold change to media control | arbitrary migration index (GM), classical monocytes of healthy donors, 40000 pM (human CX3CR1 [3]): 1.27 fold change to media control | arbitrary migration index (GM), intermediate monocytes of healthy donors, 625 pM (human CX3CR1 [3]): 1.26 fold change to media control | arbitrary migration index (GM), intermediate monocytes of healthy donors, 2500 pM (human CX3CR1 [3]): 1.14 fold change to media control | arbitrary migration index (GM), intermediate monocytes of healthy donors, 10000 pM (human CX3CR1 [3]): 1.04 fold change to media control | arbitrary migration index (GM), intermediate monocytes of healthy donors, 40000 pM (human CX3CR1 [3]): 1.13 fold change to media control | arbitrary migration index (GM), non-classical monocytes of healthy donors, 625 pM (human CX3CR1 [3]): 1.05 fold change to media control | arbitrary migration index (GM), non-classical monocytes of healthy donors, 2500 pM (human CX3CR1 [3]): 1.08 fold change to media control | arbitrary migration index (GM), non-classical monocytes of healthy donors, 10000 pM (human CX3CR1 [3]): 0.82 fold change to media control | arbitrary migration index (GM), non-classical monocytes of healthy donors, 40000 pM (human CX3CR1 [3]): 0.91 fold change to media control

B2: A041600085 (VHH)
chain: DVQLVESGGGLVQPGGSLRLSCAASGSIFSSTAMAWYRQAPGKRRDLVAAISTVGVTKYADSVKGRFTISRDNSKNTVYLQMNSLRPEDTAVYYCTSDPRRGWDTRYWGQGTLVTVSSGGGGSGGGSEVQLVESGGGVVQPGGSLRLSCAASGFTFRSFGMSWVRQAPGKGPEWVSSISGSGSDTLYADSVKGRFTISRDNSKNTLYLQMNSLRPEDTALYYCTIGGSLSRSSQGTLVTVSSGGGGSGGGSEVQLVESGGGLVQPGGSLRLSCAASGSIFSSTAMAWYRQAPGKRRDLVAAISTVGVTKYADSVKGRFTISRDNSKNTVYLQMNSLRPEDTAVYYCTSDPRRGWDTRYWGQGTLVTVSSA
notes: also called 307-9GS-ALB23002-9GS-307 (D1E)-A
fold difference in EC50 (cyno CX3CR1 against human CX3CR1) (cynomolgus CX3CR1): 3.3 fold
